# In publication PMC5413018, “Neuropeptide S (NPS) variants modify the signaling and risk effects of NPS Receptor 1 (NPSR1) variants in asthma” (PLoS ONE, 2017):
# Biological target: T1, NPSR1-Ile(107) (Homo sapiens, UniProt Q6W5P4, N107I)
# T1 sequence (Q6W5P4 1-371 N107I): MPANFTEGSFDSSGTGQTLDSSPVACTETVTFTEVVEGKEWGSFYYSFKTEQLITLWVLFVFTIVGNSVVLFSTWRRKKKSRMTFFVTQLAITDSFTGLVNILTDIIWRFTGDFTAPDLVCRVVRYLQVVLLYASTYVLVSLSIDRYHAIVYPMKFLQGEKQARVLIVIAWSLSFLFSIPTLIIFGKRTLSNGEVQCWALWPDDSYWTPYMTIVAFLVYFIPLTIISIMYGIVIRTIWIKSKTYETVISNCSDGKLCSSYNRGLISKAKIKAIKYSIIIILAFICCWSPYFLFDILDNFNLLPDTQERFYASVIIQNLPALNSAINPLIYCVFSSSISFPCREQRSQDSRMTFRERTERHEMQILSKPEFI
# Assay: Real-time RT-PCR of NPSR1 downstream target genes in HEK293 cells, NPSR1-Ile(107)
# Assay type: cell-based
# Design: expressed in transfected cells; host or cells: HEK293
# From the text: The activation of CRE results in transcriptional changes of downstream target genes. To examine whether the observed differences in the promoter activity also affected gene expression, we measured the effects of NPS variants on known NPSR1 downstream target genes. NR4A1 (nuclear receptor subfamily 4, group A, member 1), FOS (FBJ murine osteosarcoma viral oncogene homolog), and chemokine ligands CXCL2 and CCL20 were selected as they were among the most influenced genes after NPS stimulation and their expression also differed between transcriptome comparisons of HEK293 cells expressing either NPSR1-Ile(107) or NPSR1-Asn(107). In the present study, HEK293 cells transiently transfected with either NPSR1-Ile(107) or NPSR1-Asn(107) coding variants were stimulated with 100 nM of either NPS-Val(6) or NPS-Leu(6) for 1, 3, 6, and 24 h, and changes in gene expression were analyzed with RT-PCR.
# Fig 2 Real time RT-PCR analysis of NPSR1 downstream target genes. […] GAPDH was used as the endogenous reference, and data are expressed as mean of triplicate samples. […] In all experiments, results were calculated with the comparative Ct method.
# Human embryonic kidney cells (HEK293) were cultured in MEM+GlutaMAX-1 medium (Gibco/Invitrogen) supplemented with 10% fetal calf serum (FCS) (Biosera), 1% sodium pyruvate, 1% non-essential amino acids and 1% penicillin/streptomycin (Gibco/Invitrogen). […] The HEK293 cell line was chosen for ligand-receptor studies because it is a well-established model for addressing numerous questions in basic biology and is easy to transfect and amenable of stringent quantitative assessment. […]
# The mRNA expression was measured with qRT-PCR using either SYBR Green (for NR4A1, FOS, IER3, and EGR1, the primer sequences are given in S5 Table) or TaqMAN assay (Hs00601975 for CXCL2 Hs00601975, Hs01011368 for CCL20, Hs01036497 for NPSR1 and Pre-Developed TaqMAN Assay Reagents, Part No. 4310884 for GAPDH; Applied Biosystems). […]
# [1] = HEK293 with NPSR1-Ile(107) or NPSR1-Asn(107), 100 nM NPS
substance,measurement,setting,value
"Neuropeptide S (SFRNGVGTGMKKTSFQRAKS; Neuropeptide S; UniProt P0C0P6 70-89, looked up) [NPS, Neuropeptide S, variant not specified at the place]",downstream signaling in cells expressing NPSR1-Ile(107) vs NPSR1-Asn(107) (in words),"HEK293, 100 nM, compared with cells expressing NPSR1-Asn(107)",stronger downstream signaling
same,"time of mRNA induction of NR4A1, FOS and CXCL2",[1],1 h
same,time of up-regulation of CCL20 mRNA,[1],3 h
